Reference: patent US7314716B2, “Gustducin γ subunit materials and methods” (Mount Sinai School of Medicine, priority 1999, dated 2008)
Each block holds one molecule with its values, some of them ahead of it.

Columns and labels:
gustducin α subunit = target: T1, gustducin α subunit (Rattus norvegicus, UniProt P29348); assay: Trypsin protection assay of G protein α and γ subunit interaction; assay type: binding; conditions: in vitro translated γ and α subunits mixed 3:1, without β subunit
T1 construct: made in house; host or cells: cell-free in vitro transcription/translation (Promega TNT system)
Source text: The interaction was confirmed using a trypsin protection assay that detects the direct interaction of G protein α and γ subunits. The assay is based on the fact that γ subunits, in the absence of β subunits, can interact directly with α subunits, and that this interaction apparently dictates which βγ dimer associates with which α subunit. See Rahmatullah & Robishaw, J. Biol. Chem., 269: 3574–3580 (1994).
To monitor G protein α and γ subunit interactions, gustducin γ and α subunit DNAs were transcribed and translated in vitro using the Promega TNT system, mixed in a 3:1 ratio, and incubated for 15 minutes at 30° C. in buffer G [15 mM Na-HEPES pH 8.0, 250 mM NaCl, 0.6 mM EDTA, 0.6 mM DTT, 5 mM MgCl2, 0.1 mM GDP and 0.3% polyoxyethylene 10-lauryl ether (LPX)]. The assay was initiated by adding Tosyl-L-phenylalanine chloromethyl ketone (TPCK) treated-trypsin (0.5 μg), incubated for 1 hour at 30° C., and terminated with 3 μg soybean trypsin inhibitor (SBTI) (15 min, at 30° C.). The samples were analyzed on 12% SDS-PAGE, gels were fixed, enhanced with En^3Hance (NEN), dried and exposed to X-ray film.
Other Gγ subunits were also tested in the assay.

β1 subunit = target: T2, β1 subunit (Homo sapiens, UniProt P62873); assay: Trypsin assay of βγ dimer formation; assay type: binding; conditions: cotranslated in vitro with β1 subunit
T2 construct: made in house; host or cells: cell-free in vitro transcription/translation
Description: To determine which β and gustducin γ subunit combinations were capable of forming dimers another trypsin assay was utilized. β monomers are cleaved at numerous sites by trypsin, whereas βγ dimers are cleaved at a single site, resulting in the appearance of a 26-kDa fragment of the β subunit. See Schmidt et al., J. Biol. Chem., 267: 13807–13810 (1992).
Plasmid DNAs (0.5 μg) encoding β1 subunit was transcribed and translated in vitro, in the presence or absence of plasmid DNA (0.5 μg) coding for the gustducin γ subunit. Aliquots (10 μl) of the cotranslated βγ mix or β subunit alone were digested by TPCK-treated trypsin (1 μg) in a final volume of 20 μl (with 50 mM Na-HEPES pH 8.0). After incubation for 1 hour at 30° C., the digestions were stopped by addition of 6 μg SBTI as described above. Protected fragments of β subunits were analyzed on 15% SDS-PAGE. Detection was as described above.
In the assay, β1 formed dimers with gustducin γ subunit that were protected from trypsin digestion.

T1 sequence (P29348 2-354 limits assumed): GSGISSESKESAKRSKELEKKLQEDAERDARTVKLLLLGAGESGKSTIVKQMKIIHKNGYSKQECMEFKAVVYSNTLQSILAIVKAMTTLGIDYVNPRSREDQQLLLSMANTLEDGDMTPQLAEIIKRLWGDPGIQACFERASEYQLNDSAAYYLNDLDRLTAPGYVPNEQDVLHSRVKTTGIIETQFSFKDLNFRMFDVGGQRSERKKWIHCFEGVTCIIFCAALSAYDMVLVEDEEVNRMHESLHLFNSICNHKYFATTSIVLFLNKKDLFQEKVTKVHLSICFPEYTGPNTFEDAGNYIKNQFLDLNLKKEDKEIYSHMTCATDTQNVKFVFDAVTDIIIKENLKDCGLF
T2 sequence (P62873 whole entry): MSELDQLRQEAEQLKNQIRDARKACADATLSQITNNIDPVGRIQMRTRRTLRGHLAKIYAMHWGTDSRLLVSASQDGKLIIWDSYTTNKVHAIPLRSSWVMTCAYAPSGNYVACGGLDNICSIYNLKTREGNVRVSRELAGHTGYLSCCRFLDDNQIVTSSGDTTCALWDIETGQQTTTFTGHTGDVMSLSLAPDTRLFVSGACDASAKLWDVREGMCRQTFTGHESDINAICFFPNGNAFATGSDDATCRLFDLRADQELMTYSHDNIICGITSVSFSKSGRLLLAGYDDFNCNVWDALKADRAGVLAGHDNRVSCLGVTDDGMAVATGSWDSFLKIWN
T2 sequence (Q9P2W3 whole entry partner): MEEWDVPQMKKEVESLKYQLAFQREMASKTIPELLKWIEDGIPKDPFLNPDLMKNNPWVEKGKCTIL

dimer formation with β1, protected from trypsin digestion (β1 subunit): formed dimers
B1: Gustducin γ subunit: γ subunit of the taste cell G protein gustducin, 67 amino acids, designated Gγ13 (protein, listed as Mus musculus)
chain: MEEWDVPQMKKEVESLKYQLAFKREMSSKTIPELLKWIEDGIPKDPFLNPDLMKNNPWVEKAKCTIL
modifications: ends and bridges not checked
notes: γ subunit of the taste cell G protein gustducin, 67 amino acids, designated Gγ13
protection of gustducin α subunit from tryptic digestion (gustducin α subunit): protected gustducin α subunit from tryptic digestion to a significant extent

B2: Gγ1: G protein γ subunit which interacts with the rod transducin α subunit (protein)
chain: PVINIEDLTEKDKLKMEVDQLKKEVTLERMLVSKCCEEFRDYVEERSGEDPLVKGIPEDKNPFKELKGGC
protection of gustducin α subunit from tryptic digestion (gustducin α subunit): appeared to interact with gustducin α subunit, albeit to a lesser extent

protection of gustducin α subunit from tryptic digestion (gustducin α subunit): unable to protect
B3: cone γ8 subunit: the cone transducin α subunit partner (protein)
chain: MAQDLSEKDLLKMEVEQLKKEVKNTRIPISKAGKEIKEYVEAQAGNDPFLKGIPEDKNPFKEKGGCLIS
modifications: ends and bridges not checked
notes: the cone transducin α subunit partner

protection of gustducin α subunit from tryptic digestion (gustducin α subunit): unable to protect
B4: Gγ5: G protein γ5 subunit (protein)
chain: SGSSSVAAMKKVVQQLRLEAGLNRVKVSQAAADLKQFCLQNAQHDPLLTGVSSSTNPFRPQKVC
